B1: CPEB3 Ribozyme (parent)
chain: GGGGGCCACAGCAGAAGCGUUCACGUCGCGGCCCCUGUCAGAUUCUGGUGAAUCUGCGAAUUCUGCUGU

Variants of: B1
Test: self-cleavage, relative activity (ratio to wild type); higher = more cleavage; co-transcriptional

Row | Variant | self-cleavage
1 | C22G C34A | 0.194
2 | C22G C34G | 0.177
3 | C22U U26A | 0.2
4 | C22A U36G | 0.161
5 | C22A U36A | 0.137
6 | C22A C29A | 0.169
7 | C22A C29G | 0.162
8 | C22A C29U | 0.158
9 | C22A G41U | 0.154
10 | C22A G41A | 0.12
11 | C22A G41C | 0.138
12 | C22U C54A | 0.19
13 | C22G U26G | 0.163
14 | C22G U61G | 0.257
15 | C22G U61C | 0.167
16 | C22U U61C | 0.134
17 | C22A U64G | 0.0937
18 | C22A U64C | 0.168
19 | C22A U64A | 0.176
20 | C22U C63G | 0.156
21 | C22U C63U | 0.265
22 | C22U C63A | 0.178
23 | C22U C35U | 0.183
24 | C22U C35A | 0.178

Row | Variant | self-cleavage
25 | C22A G47A | 0.217
26 | C22A G47U | 0.18
27 | C22U C33U | 0.315
28 | C22U C33G | 0.18
29 | C22U C33A | 0.176
30 | C22G U49C | 0.123
31 | C22G U49G | 0.153
32 | C22A C34A | 0.206
33 | C22U U55C | 0.157
34 | C22U U55G | 0.169
35 | C22U U55A | 0.182
36 | C22U A59C | 0.188
37 | C22U A59U | 0.201
38 | C22G G31U | 0.178
39 | C22G G56U | 0.202
40 | C22U U49G | 0.247
41 | C22U U49C | 0.294
42 | C22U G28U | 0.148
43 | C22U G28A | 0.117
44 | U21G G65U | 0.243
45 | U21G G65C | 0.306
46 | C22G G65A | 0.173
47 | C22G G65U | 0.212
48 | C22G G65C | 0.196

Row | Variant | self-cleavage
49 | U21G U43G | 0.324
50 | U21G U43C | 0.428
51 | U21G U43A | 0.235
52 | C22G C27A | 0.149
53 | C22G C27U | 0.142
54 | C22A U69G | 0.301
55 | C22A U69C | 0.291
56 | C22A U69A | 0.189
57 | C22A C35U | 0.138
58 | C22A C35G | 0.153
59 | C22A C35A | 0.252
60 | C22G U62C | 0.117
61 | C22G U62G | 0.162
62 | C22G U62A | 0.194
63 | C22G G68U | 0.197
64 | C22A A51G | 0.169
65 | C22A A51U | 0.242
66 | C22G C63U | 0.123
67 | C22G C63A | 0.141
68 | C22G C63G | 0.209
69 | C22A U61A | 0.219
70 | C22A U61G | 0.25
71 | C22A U61C | 0.164
72 | C22A A52G | 0.214

Row | Variant | self-cleavage
73 | C22A A52U | 0.118
74 | C22A U26G | 0.305
75 | C22A U26C | 0.242
76 | U21G U62G | 0.273
77 | U21G U62A | 0.316
78 | U21G U62C | 0.305
79 | C22U G37C | 0.216
80 | C22U G37A | 0.957
81 | U21G U26A | 0.3
82 | U21G U26G | 0.221
83 | C22A | 0.201
84 | C22G | 0.181
85 | C22U | 0.337
86 | C22G G30A | 0.219
87 | C22G G30C | 0.166
88 | C22G G30U | 0.162
89 | C22U U53C | 0.227
90 | C22U U53G | 0.111
91 | C22U U53A | 0.193
92 | C22A G58A | 0.179
93 | C22A G58U | 0.119
94 | C22A C39U | 0.206
95 | C22U G30C | 0.181
96 | C22A G31U | 0.194

Row | Variant | self-cleavage
97 | C22A G31A | 0.174
98 | C22A G31C | 0.137
99 | U21G U46A | 0.537
100 | U21G U46G | 0.503
101 | C22G C24A | 0.129
102 | C22U G47A | 0.279
103 | C22U G47U | 0.37
104 | C22U G47C | 0.389
105 | C22U U44C | 0.31
106 | C22U U44G | 0.241
107 | C22U U44A | 0.318
108 | C22A C33U | 0.218
109 | C22A C33A | 0.2
110 | C22A C32U | 0.201
111 | C22A C32A | 0.224
112 | C22A C32G | 0.182
113 | C22U C24U | 0.105
114 | C22U C24G | 0.169
115 | C22A G56A | 0.134
116 | C22A G56C | 0.173
117 | C22U C32A | 0.17
118 | C22U C32U | 0.33
119 | C22U U36G | 0.175
120 | C22U U36C | 0.157

Row | Variant | self-cleavage
121 | C22U U36A | 0.196
122 | C22U G31A | 0.183
123 | C22U G31U | 0.116
124 | C22U G31C | 0.103
125 | U21G U61C | 0.214
126 | U21G U61G | 0.24
127 | C22U G56A | 0.187
128 | C22U G56U | 0.169
129 | C22U G56C | 0.21
130 | U21G U53C | 0.354
131 | U21G U53G | 0.376
132 | U21G U44C | 0.444
133 | U21G U44G | 0.386
134 | U21G U44A | 0.498
135 | U21G G50U | 0.588
136 | C22U A23U | 0.384
137 | C22U A23G | 0.307
138 | C22A U67A | 0.174
139 | C22A U67G | 0.27
140 | C22A G25U | 0.115
141 | C22A G25A | 0.162
142 | C22U G68C | 0.517
143 | C22U G68A | 0.48
144 | U21G G56U | 0.611

Row | Variant | self-cleavage
145 | C22A C66U | 0.177
146 | C22A C66G | 0.138
147 | C22A A40G | 0.246
148 | C22A A40U | 0.235
149 | C22A A40C | 0.222
150 | C22U G48U | 0.401
151 | C22U G48C | 0.313
152 | C22G G50U | 0.145
153 | C22G G50C | 0.127
154 | C22A C63G | 0.114
155 | C22A C63A | 0.13
156 | C22A U53G | 0.151
157 | C22A U53A | 0.208
158 | C22G C45G | 0.229
159 | C22G C45A | 0.223
160 | C22U A42C | 0.247
161 | C22U A42U | 0.27
162 | U21G U67G | 0.579
163 | C22A G30U | 0.181
164 | C22A G30C | 0.168
165 | C22U G50A | 0.355
166 | C22U G50C | 0.243
167 | C22U G50U | 0.312

From the RNAGym collection of RNA variant scans (doi:10.7554/elife.80360)
